Patent publication US7144983 (Genentech, dated 2006)

Assays:
[1] = biological target: trkA on parental PC12 cells (rat, UniProt P35739 33-799); test: cell-based or functional assay
[2] = biological target: T1, rat trkA recombinantly expressed on NIH3T3 cells (rat, UniProt P35739 33-799); test: cell-based or functional assay
[3] = biological target: T2, p75 on A875 human melanoma cells (human, UniProt P08138 29-427); test: 125I-hNGF displacement, A875 cells (p75), 4 C
T2 construct: whole, on cells; also called A875-p75
T2 sequence (looked up): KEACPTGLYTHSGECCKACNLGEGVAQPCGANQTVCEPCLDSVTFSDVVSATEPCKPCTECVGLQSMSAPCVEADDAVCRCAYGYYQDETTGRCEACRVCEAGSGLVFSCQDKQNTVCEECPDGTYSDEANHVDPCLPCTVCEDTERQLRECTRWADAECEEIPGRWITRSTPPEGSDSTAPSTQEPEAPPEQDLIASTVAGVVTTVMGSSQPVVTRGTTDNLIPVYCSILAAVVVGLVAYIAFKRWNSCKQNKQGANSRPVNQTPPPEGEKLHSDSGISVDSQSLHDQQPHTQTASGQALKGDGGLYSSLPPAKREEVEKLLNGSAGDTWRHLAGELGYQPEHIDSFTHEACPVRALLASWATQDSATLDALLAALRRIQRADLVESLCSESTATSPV

[4] = biological target: T1, rat trkA recombinantly expressed on …; test: 125I-hNGF displacement, NIH3T3-trkA cells, 4 C

T1 sequence (P35739 33-799): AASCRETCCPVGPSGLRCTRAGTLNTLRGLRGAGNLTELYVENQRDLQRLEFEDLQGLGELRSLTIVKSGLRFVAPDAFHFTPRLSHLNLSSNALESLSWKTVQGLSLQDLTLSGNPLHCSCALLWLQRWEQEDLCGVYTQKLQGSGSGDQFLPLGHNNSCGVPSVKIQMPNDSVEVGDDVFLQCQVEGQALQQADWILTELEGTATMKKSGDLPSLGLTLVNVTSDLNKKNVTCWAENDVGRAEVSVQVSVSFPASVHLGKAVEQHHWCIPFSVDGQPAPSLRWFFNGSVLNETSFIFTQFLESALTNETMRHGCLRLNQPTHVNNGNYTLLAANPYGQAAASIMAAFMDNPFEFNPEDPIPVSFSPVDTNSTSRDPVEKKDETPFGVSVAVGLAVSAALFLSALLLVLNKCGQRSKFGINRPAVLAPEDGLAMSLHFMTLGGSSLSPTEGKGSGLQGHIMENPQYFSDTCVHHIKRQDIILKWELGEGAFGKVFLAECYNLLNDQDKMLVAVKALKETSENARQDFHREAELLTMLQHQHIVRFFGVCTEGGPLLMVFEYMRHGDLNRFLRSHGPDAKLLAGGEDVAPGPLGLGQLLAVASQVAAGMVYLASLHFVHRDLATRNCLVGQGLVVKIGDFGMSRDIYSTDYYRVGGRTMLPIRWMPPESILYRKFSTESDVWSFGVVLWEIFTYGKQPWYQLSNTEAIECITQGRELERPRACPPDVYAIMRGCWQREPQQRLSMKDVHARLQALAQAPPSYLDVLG
trkA on parental PC12 cells, sequence (P35739 33-799): as above

B1: hNGF Mut 5 (hBDNF N-terminal chimeric mutant) (ligand)
chain: HSDPAHRGEFSVCDSVSVWVGDKTTATDIKGKEVMVLGEVNINNSVFKQYFFETKCRDPNPVDSGCRGIDSKHWNSYCTTTHTFVKALTMDGKQAAWRFIRIDTACVCVLSRKAVRRA
For B1, the “PC12 neurite outgrowth EC50” value [1] was 0.016 µg/mL, the “PC12 neurite outgrowth EC50 mutant/hNGF” value [1] was 114 ratio and the “trkA autophosphorylation, maximal level at 1 × 10^-8 M, mutant/hNGF” value [2] was 0.07 ratio. The IC50 [3] was 210 pM, the “IC50 mut/NGF” value [3] was 1 ratio and the “IC50 mut/NGF” value [4] was greater than 40 ratio.
